How the values were obtained:
[1] = target: T1, Trunc AREG (fragment that remains cell-bound after cleavage by ADAM17) (Homo sapiens, UniProt P15514); assay: Immunoblot of TRF-conjugated AREG peptides, cleaved mimic; format: binding; conditions: 1 μg/mL antibody, 200 ng TRF-conjugated peptide
T1 construct: host or cells: synthetic peptide conjugated to transferrin
Method: Monomethyl auristatin E (MMAE) conjugated 1A3 antibody (1A3-VC-PAB-MMAE) was prepared using a kit (CM11409) from CellMosaic Inc. (Woburn, MA, USA) following the manufacturer's instructions. Maleimide-activated valine-citrulline p-aminobenzylcarbamate (VCPAB) MMAE was coupled directly to the antibody after reduction through alkylation.^13 The specificity of 1A3 and 1A3-VC-PAB-MMAE to peptides representing human cleaved-AREG was confirmed by immunoblotting. Briefly, transferrin (TRF) conjugated peptides representing cleaved and uncleaved AREG (200 ng) were electrophoresed on SDS-PAGE gels, transferred to PVDF membrane and probed with 1 μg/mL of 1A3 and 1A3-VC-PAB-MMAE. Horseradish peroxidase-conjugated goat anti-rabbit IgG was used. Antibody binding was detected with enhanced chemiluminescence (ECL; Amersham, Arlington Heights, IL, USA). Furthermore, the characterization and purity of 1A3-VC-PAB-MMAE were analyzed using hydrophobic interaction chromatography (HIC) and size-exclusion chromatography (Cell Mosaic).

cleaved-AREG peptide = target: T2, cleaved-AREG peptide (Homo sapiens, UniProt P15514); assay: ELISA binding of 1A3 and 1A3-VC-PAB-MMAE to cleaved-AREG peptide; conditions: 0.001-1 μg/mL
T2 construct: host or cells: synthetic peptide
Method: Maxisorp flat bottom 96-well plates (Thermo Fisher Scientific) were coated with 5 μg/mL cleaved-AREG peptide at 4° C. overnight. After washing thrice with PBST (PBS with 0.05% Tween20) and blocking for 2 h at RT with 5% non-fat dry milk in PBST, various concentrations of 1A3 and 1A3-VC-PAB-MMAE (0.001, 0.01, 0.1, 1 μg/mL) were added to the wells and incubated for 2 h at RT. The wells were washed four times with PBST and were incubated at RT with Goat anti-rabbit IgG (H+L) Cross-adsorbed-HRP conjugate secondary Ab (ThermoFisher G-21234) for 1 h. One-Step™ Turbo™ B-ELISA Substrate Solution (Thermo Fisher Scientific) was added to the wells for color development, incubated for 15 min and the reaction was stopped by adding 2 M H2SO4.

MCF7-F xenografts = assay: Orthotopic MCF7-F endocrine-resistant xenograft in NSG mice; format: in vivo, mouse
Description: In Vivo Antitumor Activity Studies: The animal experiments were approved by the Institutional Animal Care and Use Committee of University of Wisconsin La Crosse (La Crosse, Wisconsin, USA). Four-week-old female NOD.Cg-Prkdc^scid II2rg^tm1Wjl/SzJ mice (NSG; The Jackson Laboratory) were acclimated for 1 week before the experiments. For MCF7 breast cancer xenograft model, the mice were implanted subcutaneously with 0.72-mg 17β-estradiol 90-day release tablets (Innovative Research of America) 3 days prior to cell injection. […] Firefly luciferase expressing MCF7 and MCF7-F cells (2×10^6 cells in a 1:1 mixture of serum-free DMEM and Matrigel) were injected orthotopically into the fourth inguinal mammary fat pad of each mouse. Once the tumors were well established, each cell line cohort was divided into three groups (n=5). Mean tumor volume at the start of treatment was 111 mm^3 for the MCF7 cohorts and 119 mm^3 for the MCF7-F cohorts. The mice were treated by intraperitoneal injection every 4 days for a total of six doses with unconjugated or MMAE conjugated anti-cleaved-AREG 1A3 antibody (5 mg/kg), or vehicle control (PBS). Tumor volumes were calculated from caliper data by using the formula: Volume (mm^3)=(Length×Width^2)/2. Mice were imaged weekly with the in vivo FX PRO imaging system (Carestream Molecular Imaging, Woodbridge, CA, USA) after injecting luciferin (150 mg/kg body weight). Tumor volume and body weight were monitored once a week. Statistical Analysis:
To test in vivo efficacy of 1A3-MMAE, human breast cancer cell lines expressing luciferase were injected orthotopically into NSG mice (one tumor in each inguinal mammary gland). Once the average tumor size reached approximately 100-125 mm^3, mice were randomized to one of three treatment groups: PBS, 1A3 (5 mg/kg) or 1A3-MMAE (5 mg/kg). Mice received intraperitoneal injections every 4 days for six total injections and were monitored for tumor progression or regression. Similar experiments were performed with MCF7 (FIGS. 5A, 5B, and 5C, left panels) and MCF7-F (FIGS. 5A, 5B, and 5C, right panels) xenografts.

recognition of truncated AREG peptide by immunoblot [1]: specifically recognized
binding to cleaved AREG peptide, unconjugated vs MMAE-conjugated (cleaved-AREG peptide): no substantial difference in binding
B1: 1A3: Rabbit monoclonal IgG specific to cleaved AREG; VH SEQ ID NO: 3, VL SEQ ID NO: 4 (antibody, V domains shown)
VH: QSVKESEGRLVTPGTPLRLTCTVAGYSLSRYHMCWVRQAPGKGLEWIGMIGGSGRTDYASWAKGRFTISKTSTTVDLKITSPTTEDTATYFCSTVYTDSDGDFWGPGTLVTVSS
VL: AELDMTQTPSSKSVPVGGTVTINCQASESVYSNDRLAWFQQKPGQPPKLLIYYASTLASGVPSRFKGSGSGTQFTLTISDLECADAATYYCQSCYDMSSYGVAFGGGTELEIL
modifications: 1A3 antibody, Heavy chain; 1A3 antibody, Light chain
longitudinal luciferase imaging of xenografts (MCF7-F xenografts; 5 mg/kg): exhibited tumor growth
tumor volume response by caliper measurements (MCF7-F xenografts; 5 mg/kg i.p. every 4 days, six doses): continued, sometimes rapid increases in tumor volume

— patent US12043671B2, “Antibodies targeting an amphiregulin-derived cell surface neo-epitope” (Gundersen Lutheran Medical Foundation, Inc., priority 2021, dated 2024)
